According to patent publication US20260000736A1, “PURIFIED LACTOFERRIN COMPOSITIONS AND METHODS OF USE” (Lactea Therapeutics LLC, priority 2023, published 2026):
Entries after “also recorded” stand apart in the source; their conditions may differ.

Experiments:
[1] = tested on: ECM of primary buccal cells; experiment: ECM association by immunofluorescence in primary buccal cells; assay type: cell-based; conditions: 100 µg/mL for 1 hr at 37 C
Description: Primary buccal cells were next cultured according to a standard protocol (e.g., see Russo et al. Cytotechnology. 2016 October; 68(5): 2105-2114; herein incorporated by reference for all purposes). […] Immunofluorescence imaging was performed as previously described.

[2] = Differential Scanning Calorimetry (DSC) of apolactoferrin and hololactoferrin forms; assay type: physicochemical
Description: Di[…] Calorimetry (DSC) was used to assess the hololactoferrin and apolactoferrin forms through monitoring unfolding temperatures of lactoferrin samples using a nanoDSC (TA Instruments, Lindon, UT) according to standard DSC protocols known to those of skill in the art (e.g., see Hinz et al “M[…] […] OF […] ON […] DI[…] CALORIMETRY”; herein incorporated by reference for all purposes.
API-E2 Lactoferrin (10 mg/mL), produced as described herein, was assessed by DSC. […] The lack of other peaks indicates the lack of contaminants and impurities and can assess API-E2 as ˜100%. […] Additionally, the lack of other peaks also indicated the purity of API-E2 Lactoferrin. […] The API-E2 hololactoferrin peak has a Tm of 88.38+/−0.8 C and a delta H of 632.7+/−7.2 kJ/mol. The hololactoferrin natively accounted for on average 8.74+/−1.39% of the total API-E2 lactoferrin with apolactoferrin accounting for the rest in the samples tested. However, the hololactoferrin percentage can be naturally variable. The API-E2 was calculated by this technique to contain virtually 100% pure lactoferrin.
The assay was also performed with heat-treated API-E2 Lactoferrin. API-E2 Lactoferrin was heated across a range of 50-100° C.
Lab-grade standard lactoferrin and a commercially available supplement-grade lactoferrin were also assessed by DSC under the conditions used to assess API-E2 above.

SARS-CoV-2 = SARS-CoV-2 Cytopathic Effect (CPE) reduction assay in Vero E6 cells; assay type: cell-based; conditions: Vero E6 cells, MOI of 0.001, neutral red, three days post-infection
lactoperoxidase (LPO) = experiment: Enzymatic colorimetric assay for lactoperoxidase (LPO) activity; assay type: biochemical; conditions: colorimetric peroxidase substrate
Source text: An enzymatic assay for lactoperoxidase (LPO) activity was developed utilizing a molecule which in the presence of peroxidase activity turns a blue color.

E. coli 0157 [3] = experiment: Bacterial growth inhibition, OD600 after 16 h; assay type: cell-based; conditions: 1 mg/mL Lf, 16 h at 37° C.
Description: As an analytical standard for the assessment of Lactoferrin (Lf) activity, 1 mg/mL Lf was added to 10∝CFU/mL E. coli 0157 in LB and incubated for 16 h at 37° C. Lactea Lactoferrin (Lactea-Lf) was produced as described in the above examples. Assessed were three independent lots of Lactea-Lf, impure samples which were generated by co-eluting Lactoperoxidase and Lactoferrin (co-elution), samples with degradation products generated by eluting Lactoferrin from old milk which was left for three days (Degradation Products), and a Sigma Aldrich Lactoferrin L9507 (Research Standard). As shown in FIG. 16 and quantified in Table 5, in the Lactea-Lf lots assessed, less than 5% the total growth of bacteria was observed as assessed by OD600 relative to the growth of untreated bacteria under these conditions. In this case, co-elution samples were samples which have a detectable peak of LPO as observable in MALDI-TOF M/S or HPLC. Degradation Products had identifiable degradation peaks as observed in HPLC or DSC.

E. coli 0157 [4] = experiment: Bacterial growth timecourse, OD600; assay type: cell-based; conditions: 1 mg/mL; for Bacterial Growth Timecourse, Replicate 1 / Bacterial Growth Timecourse, Replicate 2 / Bacterial Growth Timecourse, Replicate 3: OD600 relative to no treatment control at 24 hours
Description: For a more detailed comparison of Lactea-Lf antimicrobial activity relative to the Sigma Aldrich Lactoferrin, Lactea-Lf and Sigma Aldrich Lactoferrin were incubated at 1 mg/mL with for E. coli 0157 in LB seeded at 10∝CFU/mL. […] Results were quantified and reported as a percent of the OD600 of the no treatment control at 24 hours for all timepoints.

E. coli 0157 [5] = experiment: Biofilm formation, crystal violet assay; assay type: cell-based; conditions: for Biofilm Inhibition, Replicate 1 / Biofilm Inhibition, Replicate 2 / Biofilm Inhibition, Replicate 3: 24 hours
Description: Lactoferrin was assessed for biofilm growth inhibition. To study the relative concentration dependent efficacy of Lactea-Lf and the Sigma Aldrich research standard Lactoferrin in inhibiting biofilm formation, Lf was added at concentrations ranging from 2 mg/mL to 0.31 mg/mL (2-fold serial dilution curve) to E. coli 0157 in LB seeded at 10∝CFU/mL and incubated for 37° C. for 24 hours. Lactea Lactoferrin (Lactea-Lf) was produced as described in the above examples. The biofilm was stained using a standard crystal violet assay. A quantification of the inhibition of biofilm formation (FIG. 18A) and an image of a representative plate (FIG. 18B) are shown.

[6] = DSC of additional batches, ratio of apo to holo-Lactoferrin; assay type: physicochemical; conditions: 5 mg/mL, 30° C. to 100° C. range
Description: Additional batches of Lactea-Lf as described in the above examples and the relative ratio of apo to holo-Lactoferrin was assessed by Differential Scanning Calorimetry (DSC). Lactoferrin samples were loaded at 5 mg/mL into a NanoDSC (TI Instruments) and measured in the 30° C. to 100° C. range. […] It is likely that these peaks are smaller as the sample is highly impure or contains already denatured product.

[7] = 10∝CFU/mL E. coli 0157 in LB, OD600 relative to untreated

B1: Lab-grade standard lactoferrin: commercially available lab-grade standard lactoferrin (protein, UniProt P24627 20-708, looked up)
Lactotransferrin: APRKNVRWCTISQPEWFKCRRWQWRMKKLGAPSITCVRRAFALECIRAIAEKKADAVTLDGGMVFEAGRDPYKLRPVAAEIYGTKESPQTHYYAVAVVKKGSNFQLDQLQGRKSCHTGLGRSAGWIIPMGILRPYLSWTESLEPLQGAVAKFFSASCVPCIDRQAYPNLCQLCKGEGENQCACSSREPYFGYSGAFKCLQDGAGDVAFVKETTVFENLPEKADRDQYELLCLNNSRAPVDAFKECHLAQVPSHAVVARSVDGKEDLIWKLLSKAQEKFGKNKSRSFQLFGSPPGQRDLLFKDSALGFLRIPSKVDSALYLGSRYLTTLKNLRETAEEVKARYTRVVWCAVGPEEQKKCQQWSQQSGQNVTCATASTTDDCIVLVLKGEADALNLDGGYIYTAGKCGLVPVLAENRKSSKHSSLDCVLRPTEGYLAVAVVKKANEGLTWNSLKDKKSCHTAVDRTAGWNIPMGLIVNQTGSCAFDEFFSQSCAPGADPKSRLCALCAGDDQGLDKCVPNSKEKYYGYTGAFRCLAEDVGDVAFVKNDTVWENTNGESTADWAKNLNREDFRLLCLDGTRKPVTEAQSCHLAVAPNHAVVSRSDRAAHVKQVLLHQQALFGKNGKNCPDKFCLFKSETKNLLFNDNTECLAKLGGRPTYEEYLGTEYVTAIANLKKCSTSPLLEACAFLTR
In the case of B1, the “ECM association of Lactoferrin (immunofluorescence imaging)” value [1] is reported as “only limited ECM association”, the “Tm, Apolactoferrin peak” value ([2]; 10 mg/mL) is reported as 55 C and the “Tm, Hololactoferrin peak” value ([2]; 10 mg/mL) is reported as 85 C. For the same molecule, the “estimated ratio of the apolactoferrin to hololactoferrin peak” value ([2]; conditions as for API-E2) was “nearly equal”.

B2: Lactoferrin (“Reagent”): reagent grade Lactoferrin, comparable research grade reference product (protein, UniProt P24627 20-708, looked up)
Lactotransferrin: B1 Lactotransferrin
For B2, the EC50 (SARS-CoV-2) was 140 nM.

B3: Sigma-Lf: Sigma Aldrich Lactoferrin L9507 (Research Standard) (protein, UniProt P24627 20-708, looked up)
Lactotransferrin: B1 Lactotransferrin
With B3 the “LPO enzymatic activity (blue color reaction)” value (lactoperoxidase (LPO)) was “does not result in a positive enzymatic reaction”, the “Relative Bacterial Growth, Replicate 1” value (E. coli 0157 [3]; [7]) was 0.8089 and the “Relative Bacterial Growth, Replicate 2” value (E. coli 0157 [3]; [7]) was 0.8162. For the same molecule, the “Relative Bacterial Growth, Replicate 3” value (E. coli 0157 [3]; [7]) was 0.7726, the “antibacterial activity compared with other samples” value (E. coli 0157 [3]) was “less activity than any lot of co-elution or degraded product” and the “time at which bacterial growth became observable / evident” value (E. coli 0157 [4]; E. coli 0157 in LB) was 6 h. The “Bacterial Growth Timecourse, Replicate 1” value (E. coli 0157 [4]; 3 h) was 0.04197, the “Bacterial Growth Timecourse, Replicate 2” value (E. coli 0157 [4]; 3 h) was 0.0345 and the “Bacterial Growth Timecourse, Replicate 3” value (E. coli 0157 [4]; 3 h) was 0.04414. For the same molecule, the “Bacterial Growth Timecourse, Replicate 1” value (E. coli 0157 [4]; 6 h) was 0.6058, the “Bacterial Growth Timecourse, Replicate 2” value (E. coli 0157 [4]; 6 h) was 0.6264 and the “Bacterial Growth Timecourse, Replicate 3” value (E. coli 0157 [4]; 6 h) was 0.6363. The “Bacterial Growth Timecourse, Replicate 1” value (E. coli 0157 [4]; 9 h) was 0.6012, the “Bacterial Growth Timecourse, Replicate 2” value (E. coli 0157 [4]; 9 h) was 0.6124 and the “Bacterial Growth Timecourse, Replicate 3” value (E. coli 0157 [4]; 9 h) was 0.6341. The “Bacterial Growth Timecourse, Replicate 1” value (E. coli 0157 [4]; 12 h) was 0.6658, the “Bacterial Growth Timecourse, Replicate 2” value (E. coli 0157 [4]; 12 h) was 0.6702 and the “Bacterial Growth Timecourse, Replicate 3” value (E. coli 0157 [4]; 12 h) was 0.6326. The “Bacterial Growth Timecourse, Replicate 1” value (E. coli 0157 [4]; 15 h) was 0.6543, the “Bacterial Growth Timecourse, Replicate 2” value (E. coli 0157 [4]; 15 h) was 0.6602 and the “Bacterial Growth Timecourse, Replicate 3” value (E. coli 0157 [4]; 15 h) was 0.6251. The “Bacterial Growth Timecourse, Replicate 1” value (E. coli 0157 [4]; 18 h) was 0.6295, the “Bacterial Growth Timecourse, Replicate 2” value (E. coli 0157 [4]; 18 h) was 0.6201 and the “Bacterial Growth Timecourse, Replicate 3” value (E. coli 0157 [4]; 18 h) was 0.599. For the same molecule, the “Bacterial Growth Timecourse, Replicate 1” value (E. coli 0157 [4]; 21 h) was 0.6512, the “Bacterial Growth Timecourse, Replicate 2” value (E. coli 0157 [4]; 21 h) was 0.5981 and the “Bacterial Growth Timecourse, Replicate 3” value (E. coli 0157 [4]; 21 h) was 0.5984. The “Bacterial Growth Timecourse, Replicate 1” value (E. coli 0157 [4]; 24 h) was 0.6668, the “Bacterial Growth Timecourse, Replicate 2” value (E. coli 0157 [4]; 24 h) was 0.6205 and the “Bacterial Growth Timecourse, Replicate 3” value (E. coli 0157 [4]; 24 h) was 0.6407. For the same molecule, the “inhibition of biofilm formation, in words” value (E. coli 0157 [5]; E. coli 0157, 24 hours) was “only appears to demonstrate inhibition of biofilm in the low mg/mL range, but never completely eliminates biofilm formation”, the “Biofilm Inhibition, Replicate 1” value (E. coli 0157 [5]; [Lf] 0.031 mg/mL) was 0.6588 and the “Biofilm Inhibition, Replicate 2” value (E. coli 0157 [5]; [Lf] 0.031 mg/mL) was 0.9283. The “Biofilm Inhibition, Replicate 3” value (E. coli 0157 [5]; [Lf] 0.031 mg/mL) was 0.854, the “Biofilm Inhibition, Replicate 1” value (E. coli 0157 [5]; [Lf] 0.063 mg/mL) was 0.2439 and the “Biofilm Inhibition, Replicate 2” value (E. coli 0157 [5]; [Lf] 0.063 mg/mL) was 0.1943. The “Biofilm Inhibition, Replicate 3” value (E. coli 0157 [5]; [Lf] 0.063 mg/mL) was 0.3058, the “Biofilm Inhibition, Replicate 1” value (E. coli 0157 [5]; [Lf] 0.125 mg/mL) was 0.1583 and the “Biofilm Inhibition, Replicate 2” value (E. coli 0157 [5]; [Lf] 0.125 mg/mL) was 0.1464. For the same molecule, the “Biofilm Inhibition, Replicate 3” value (E. coli 0157 [5]; [Lf] 0.125 mg/mL) was 0.5378, the “Biofilm Inhibition, Replicate 1” value (E. coli 0157 [5]; [Lf] 0.25 mg/mL) was 0.1929 and the “Biofilm Inhibition, Replicate 2” value (E. coli 0157 [5]; [Lf] 0.25 mg/mL) was 0.2837. The “Biofilm Inhibition, Replicate 3” value (E. coli 0157 [5]; [Lf] 0.25 mg/mL) was 0.358, the “Biofilm Inhibition, Replicate 1” value (E. coli 0157 [5]; [Lf] 0.5 mg/mL) was 0.126 and the “Biofilm Inhibition, Replicate 2” value (E. coli 0157 [5]; [Lf] 0.5 mg/mL) was 0.192. For the same molecule, the “Biofilm Inhibition, Replicate 3” value (E. coli 0157 [5]; [Lf] 0.5 mg/mL) was 0.1942, the “Biofilm Inhibition, Replicate 1” value (E. coli 0157 [5]; [Lf] 1 mg/mL) was 0.05367 and the “Biofilm Inhibition, Replicate 2” value (E. coli 0157 [5]; [Lf] 1 mg/mL) was 0.09846. The “Biofilm Inhibition, Replicate 3” value (E. coli 0157 [5]; [Lf] 1 mg/mL) was 0.1465, the “Biofilm Inhibition, Replicate 1” value (E. coli 0157 [5]; [Lf] 2 mg/mL) was 0.09652 and the “Biofilm Inhibition, Replicate 2” value (E. coli 0157 [5]; [Lf] 2 mg/mL) was 0.03678. For the same molecule, the “Biofilm Inhibition, Replicate 3” value (E. coli 0157 [5]; [Lf] 2 mg/mL) was 0.08427 and the “relative ratio of apo to holo-Lactoferrin, DSC peak pattern” value [6] was “one lot was almost entirely holo-Lf and had two peaks in the holo-Lf range; also recorded: two faint peaks with slightly more holo-Lf than apo-Lf”.

B4: heat-treated API-E2 Lactoferrin: API-E2 Lactoferrin heated across a range of 50-100° C. (protein, UniProt P24627 20-708, looked up)
Lactotransferrin: B1 Lactotransferrin
modifications: heat-treated
In the case of B4, the “detectable apolactoferrin and hololactoferrin DSC peaks” value ([2]; conditions as for API-E2) is reported as “loss in both detectable peaks”.
